B1: pN152: agonistic anti-MC4R VHH, SEQ ID NO: 183 (protein)
VHH: QVQLVESGGGLVQPGGSLKLSCAASGSISSKSDWGWYRQAPGKERELVAQITSGGNLKYASAVTGRFTISRDNAKNTVNLLMSRLKPEDTAIYFCNARTWRLVRYYDYWGQGTQVTVSS
modifications: pN0152
B2: pN161: agonistic anti-MC4R VHH, SEQ ID NO: 314 (protein)
VHH: QVQLVESGGGLVQAGGSLRLSCAASGSISRTNGMGWYRQAPGKQRELVAAITTGGSTNYANSAKGRFTISRDNAKNTVYLQMNSLKPEDTAVYYCNARYGSSSFRWGDFEVWGQGTQVTVSS
modifications: PN0161

Molecular target: human wild type MC4R (Homo sapiens, UniProt P32245)
Test: cAMP signaling assay (Lance Ultra HTRF)
Format: cell-based
Set-up: double Twin Strep tag; expressed in transfected cells; host or cells: HEK293
Settings: purified nanobodies, human MC4R-overexpressing HEK293 cells, read-out: potencies, MC4R-mediated dose-dependent cAMP accumulation
Experimental: To confirm MC4R activation, dose-dependent nanobody-induced cAMP signaling was assessed (Lance Ultra HTRF). […] Binding of pN162 to the human melanocortin receptor subtypes MC1R, MC2R, MC3R, MC4R or MC5R transiently expressed as Flag-tagged receptors in HEK293T cells was assessed by flow cytometry.

Sequence of human wild type MC4R (P32245 whole entry): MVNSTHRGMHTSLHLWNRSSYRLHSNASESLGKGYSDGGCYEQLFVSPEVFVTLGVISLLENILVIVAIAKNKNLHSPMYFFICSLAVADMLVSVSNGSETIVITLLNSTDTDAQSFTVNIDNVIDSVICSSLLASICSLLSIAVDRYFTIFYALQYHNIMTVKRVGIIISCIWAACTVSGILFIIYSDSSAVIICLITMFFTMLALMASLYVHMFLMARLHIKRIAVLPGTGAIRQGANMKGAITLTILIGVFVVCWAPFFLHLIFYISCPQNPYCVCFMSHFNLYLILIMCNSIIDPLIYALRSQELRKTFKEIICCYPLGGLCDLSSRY

Row | Molecule | EC50 [nM]
1 | B1 | 0.7
2 | B2 | 393

Source: patent US20260103529A1, “Amino Acid Sequences Directed Against the Melanocortin 4 Receptor and Polypeptides Comprising the Same for the Treatment of MC4R-Related Diseases and Disorders” (Confo Therapeutics N.V., priority 2022, published 2026)
